Results on ten molecules are retold here after patent publication US20260242759A1, “GQ/11 Protein Peptidomimetics” (Vrije Universiteit Brussel, priority 2022, published 2026).

In assay [1] the target is T1, human ghrelin receptor (GHSR) (Homo sapiens, UniProt Q92847, C146S/C304S).
T1 construct: integrin α5 fragment (N); polyhistidine tag (C); made in house; host or cells: E. coli BL21(DE3)
The assay can be described thus: Bimane fluorescence assay on purified ghrelin receptor in nanodiscs. It counts as biochemical. The settings on record: for conformational change in the receptor: in presence of JMV1843. The text has this:
Another assay that can be used to analyse conformational changes associated with GPCR activation and/or to identify G protein peptidomimetics that are capable of stabilizing a GPCR in an active conformational state is the bimane fluorescence assay or bimane assay. This assay works through labelling of a cysteine residue in the lower part of the TM6 of a GPCR with a bimane-fluorophore (monobromobimane (MB)). Binding of an agonist to the GPCR causes a conformational change and outward movement of TM6 that places bimane in a more solved-exposed position, which will alter its maximum emission wavelength. In particular, increasing concentrations of agonist result in a concentration-dependent red-shift of the maximum emission wavelength (λmax) of the bimane-fluorophore probe. In the presence of a G protein or an active state stabilizing G protein peptidomimetic λmax may increase further. For example, a bimane labelled ghrelin receptor (such as a cysmin mutant (i.e. mutant with minimal cysteines) of human ghrelin receptor (also referred to herein as growth hormone secretagogue receptor (GHSR) (e.g. the mutant as described in Damian et al. (2021) wherein monobromobimane (MB) fluorescent probe is attached to Cys^255) and ghrelin receptor agonist JMV1843 may be used.
The bimane fluorescence assays on the ghrelin receptor were performed as described in Damian et al. (2021. Nat. Commun. 12:1-15). Briefly, E. coli bacteria (BL21(DE3)) were transformed with a vector encoding the human ghrelin receptor with an integrin α5 fragment at the N-terminus and a polyhistidine tag at the C-terminus. The receptors were then purified and reconstituted into lipidated nanodiscs. The monobromobimane labeling was performed by incubating the receptors, with a unique reactive cysteine at position 255, during 16 h in the dark at 4° C. and in the presence of 0.1 mM tris(2-carboxyethyl)phosphine (TCEO). The reaction was terminated with 5 mM L-cysteine and unreacted monobromobimane was removed using a Zeba™ Spin desalting column.
For the fluorescence assay, the labeled receptor was incubated during 2 h at 20° C. (0.2 μM final concentration), in the absence or presence of the full agonist JMV1843 (20 μM) and in the absence or presence of either the peptidomimetics at varying molar ratios or the purified Gαqβ1γ2 heterotrimer, at a 1:5 receptor-to-G protein molar ratio. Afterwards, the fluorescence experiments were performed on a Horiba Fluoromax-4 TCSP spectrofluorimeter. For each scan, the excitation wavelength (λexc) was set at 380 nm and emission was collected between 440 nm and 520 nm.
The bimane assay is used on GPCRs to detect conformational changes associated with receptor activation. This assay functions through the labelling of a cysteine, which is one of the least frequently occurring amino acids in proteins. Additionally, the majority of the extracellular cysteines form disulfide bonds, which, together with the transmembrane cysteines, are inert to thiol-reactive reagents. Additionally, some of the intracellular cysteines in the C-terminal tail may carry post-translational modifications which reduces the number of reactive cysteines in the receptor (Tian et al. 2017. Chem. Rev. 117:186-245). For GHSR, the remaining reactive cysteine residues C146 (ICL2) and C304 (extracellular end of TM7) were replaced by serines (cysmin mutant, i.e. mutant with minimal cysteines), to allow the monobromobimane (MB) fluorescent probe to be specifically attached to Cys255 in the lower part of TM6 (FIG. 5a) (Damian et al. 2021). In this assay, bimane is chosen because of its small size and sensitivity to the polarity of its environment (Yao et al. 2006. Nat Chem. Biol. 2:417-422). Binding of a ligand to the receptor, causes a conformational change and outward movement of TM6 that places bimane in a more solvent-exposed position, which alters its maximum emission wavelength. […]

In assay [2] the target is ghrelin receptor overexpressed on HEK293 cells (UniProt Q92847 1-366, limits assumed). The assay can be described thus: cell-based or functional assay.
Chain of ghrelin receptor overexpressed on HEK293 cells (Q92847 whole entry): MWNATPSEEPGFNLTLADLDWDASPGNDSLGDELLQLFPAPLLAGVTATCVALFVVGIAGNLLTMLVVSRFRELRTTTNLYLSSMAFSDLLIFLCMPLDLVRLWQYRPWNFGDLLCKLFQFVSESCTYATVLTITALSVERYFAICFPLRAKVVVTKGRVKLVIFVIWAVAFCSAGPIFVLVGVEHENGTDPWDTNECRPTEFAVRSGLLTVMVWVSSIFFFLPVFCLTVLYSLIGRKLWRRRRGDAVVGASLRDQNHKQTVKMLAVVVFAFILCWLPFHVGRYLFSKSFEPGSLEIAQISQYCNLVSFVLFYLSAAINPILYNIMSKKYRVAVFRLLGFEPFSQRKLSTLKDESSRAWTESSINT
Assay [3] concerns the target T2, full-length human muscarinic 1 receptor with a FLAG tag at the N-terminus (human, UniProt P11229 1-460).
T2 sequence: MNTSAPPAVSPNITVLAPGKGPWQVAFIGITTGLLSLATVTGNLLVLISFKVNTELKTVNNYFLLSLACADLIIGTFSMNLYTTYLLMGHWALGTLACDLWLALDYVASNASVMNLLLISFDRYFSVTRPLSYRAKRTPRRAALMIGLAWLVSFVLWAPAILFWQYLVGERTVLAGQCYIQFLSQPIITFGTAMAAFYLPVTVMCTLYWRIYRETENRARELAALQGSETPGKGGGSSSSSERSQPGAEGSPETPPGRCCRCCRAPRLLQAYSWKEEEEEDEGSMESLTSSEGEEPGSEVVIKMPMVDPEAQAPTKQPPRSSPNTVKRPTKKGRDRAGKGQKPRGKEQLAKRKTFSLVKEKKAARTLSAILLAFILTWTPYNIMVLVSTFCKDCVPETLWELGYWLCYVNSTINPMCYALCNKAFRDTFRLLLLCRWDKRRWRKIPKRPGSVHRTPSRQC
The assay can be described thus: cell-based or functional assay.

Positions of bridges follow the written chain, without caps; N, C: chain ends. Non-standard residues stand in square brackets, D forms with d. Residues, ends and D or L forms follow the SMILES beside them. Triazole bridges read from a SMILES are 1,4-linked. Lys(N3) = [N-]=[N+]=NCCCC[C@H](N)C(=O)O; Cha = N[C@@H](CC1CCCCC1)C(=O)O; Pra = C#CC[C@H](N)C(=O)O

T1 sequence (Q92847 whole entry C146S/C304S, the tested form may be a part): as the sequence (Q92847 whole entry) above, with C146S, C304S counted along it

On to `CC(C)(N)C(=O)N[C@H](Cc1c[nH]c2ccccc12)C(=O)N[C@H](Cc1c[nH]c2ccccc12)NC=O` [JMV1843, reference compound], for which the “maximum emission wavelength of bimane” value in assay [1] (agonist JMV1843 alone, in the absence of the Gq protein) is reported as roughly 476 nm.

Take “Gq protein: purified Gαqβ1γ2 heterotrimer used as reference in the bimane assay”: the “maximum emission wavelength of bimane” value in assay [1] (bimane labeled GHSR, in presence of full agonist JMV1843 (20 μM)) was roughly 480.5 nm.

Regarding `CC[C@H](C)[C@H](NC(=O)[C@@H](NC(=O)[C@H](CC(=O)O)NC(=O)[C@H](CCCCN)NC(=O)[C@@H](NC(=O)[C@H](C)NC(=O)[C@H](C)NC(=O)[C@H](Cc1ccccc1)NC(C)=O)C(C)C)[C@@H](C)O)C(=O)N[C@@H](CC(C)C)C(=O)N[C@@H](CCC(N)=O)C(=O)N[C@@H](CC(C)C)C(=O)N[C@@H](CC(N)=O)C(=O)N[C@@H](CC(C)C)C(=O)N[C@@H](CCCCN)C(=O)N[C@@H](CCC(=O)O)C(=O)N[C@@H](Cc1ccc(O)cc1)C(=O)N[C@@H](CC(N)=O)C(=O)N[C@@H](CC1CCCCC1)C(=O)N[C@H](C(=O)O)C(C)C` [SBL-GQ-03] (Ac-FAAVKDTILQLNLKEYN[Cha]V-OH), in assay [1] (bimane labeled GHSR), the “conformational change in the receptor” value is given as “not able to induce a conformational change”.

`CC[C@H](C)[C@H](NC(=O)[C@@H]1CCCCn2cc(nn2)C[C@H](NC(=O)[C@H](C)NC(=O)[C@H](Cc2ccccc2)NC(=O)[C@H](CCCCN)NC(=O)[C@H](CCCCN)NC(=O)[C@H](CCCCN)NC(C)=O)C(=O)N[C@@H](C(C)C)C(=O)N[C@@H](CCCCN)C(=O)N[C@@H](CC(=O)O)C(=O)N1)C(=O)N[C@@H](CC(C)C)C(=O)N[C@@H](CCC(N)=O)C(=O)N[C@@H](CC(C)C)C(=O)N[C@@H](CC(N)=O)C(=O)N[C@@H](CC(C)C)C(=O)N[C@@H](CCCCN)C(=O)N[C@@H](CCC(=O)O)C(=O)N[C@@H](Cc1ccc(O)cc1)C(=O)N[C@@H](CC(N)=O)C(=O)N[C@@H](CC(C)C)C(=O)N[C@H](C(=O)O)C(C)C` [SBL-GQ-05] (Ac-KKKFA[Pra]VKD[Lys(N3)]ILQLNLKEYNLV-OH; triazole 6-10): the Emax in assay [1] (highest peptide concentrations (GHSR:peptide 1:50, 1:100), with JMV1843, read-out: effect normalized to the maximal effect of the Gq protein) is roughly 90%.

In the case of Ac-FAAVKDTILQLNLKEYNLV-OH [SBL-GQ-01], the “conformational change in the receptor” value in assay [1] (bimane labeled GHSR) is on record as “not able to induce a conformational change”.

B1: SBL-GQ-14 (peptide)
peptide: H-RRRRFA[Pra]VKD[Lys(N3)]ILQLNLKEYNLV-OH
modifications: triazole 7-11
In the case of B1, in assay [2], the “EC50 (M) of the MK0677 agonist, IP-One Gq assay, peptidomimetic at 10 µM, n = 1” value was 6.96e-10 M; the “EC50 (M) of the MK0677 agonist, IP-One Gq assay, peptidomimetic at 10 µM, n = 2” value worked out at 1.01e-10 M; the “EC50 (M) of the MK0677 agonist, IP-One Gq assay, peptidomimetic at 10 µM, n = 3” value was determined as 1.87e-10 M.

B2: SBL-GQ-13 (peptide)
peptide: H-KKKFA[Pra]VKD[Lys(N3)]ILQLNLKEYNLV-OH
modifications: triazole 6-10
For B2, in assay [2], the “EC50 (M) of the MK0677 agonist, IP-One Gq assay, peptidomimetic at 10 µM, n = 1” value is 4.42e-10 M; the “EC50 (M) of the MK0677 agonist, IP-One Gq assay, peptidomimetic at 10 µM, n = 2” value turned out to be 1.01e-10 M; the “EC50 (M) of the MK0677 agonist, IP-One Gq assay, peptidomimetic at 10 µM, n = 3” value is 1.31e-10 M.

B3: SBL-GQ-10 (peptide)
peptide: Ac-KKKFNDCKDIILQMNLREYN[Cha]V-OH
SMILES: CC[C@H](C)[C@H](NC(=O)[C@H](CC(=O)O)NC(=O)[C@H](CCCCN)NC(=O)[C@H](CS)NC(=O)[C@H](CC(=O)O)NC(=O)[C@H](CC(N)=O)NC(=O)[C@H](Cc1ccccc1)NC(=O)[C@H](CCCCN)NC(=O)[C@H](CCCCN)NC(=O)[C@H](CCCCN)NC(C)=O)C(=O)N[C@H](C(=O)N[C@@H](CC(C)C)C(=O)N[C@@H](CCC(N)=O)C(=O)N[C@@H](CCSC)C(=O)N[C@@H](CC(N)=O)C(=O)N[C@@H](CC(C)C)C(=O)N[C@@H](CCCNC(=N)N)C(=O)N[C@@H](CCC(=O)O)C(=O)N[C@@H](Cc1ccc(O)cc1)C(=O)N[C@@H](CC(N)=O)C(=O)N[C@@H](CC1CCCCC1)C(=O)N[C@H](C(=O)O)C(C)C)[C@@H](C)CC
Take B3: in assay [3], the “IC50 (µM) of the agonist acetylcholine chloride for the M1 receptor in the presence of the peptidomimetic, RLA” value (“IC50 (µM)” below) came out at 409 µM and the “Shift (IC50 ratio without/with peptidomimetic), RLA” value amounted to 2.

B4: SBL-GQ-02 (peptide)
peptide: Ac-KKKFAAVKDTILQLNLKEYNLV-OH
B4: in assay [3], the “IC50 (µM)” value is 474 µM and the “Shift (IC50 ratio without/with peptidomimetic), RLA” value turned out to be 2.

B5: SBL-GQ-08 (peptide)
peptide: Ac-KKKFNDCKDIILQMNLREYNLV-OH
Consider B5, for which, in assay [3], the “IC50 (µM)” value was determined as 413 µM and the “Shift (IC50 ratio without/with peptidomimetic), RLA” value stood at 2.
